These results are taken from publication PMC12691637.

In the test the target is cytosolic fragment of the McpN chemoreceptor (McpN_CF) (Pseudomonas aeruginosa PAO1). Description: ITC; VP microcalorimeter, 25°C; 3 mM Tris, 3 mM PIPES, 3 mM MES, 5 mM 2-mercaptoethanol, pH 8.0; 10 µM cytosolic fragment in the sample cell titrated with 12.8 µL aliquots of 113 µM CheV or CheV D238E; 'Two Binding Sites' model. On the technique in general: In ITC the heat of successive injections is recorded.

“CheV D238E (phosphorylation mimic) of Pseudomonas aeruginosa PAO1 (natural protein)”: the KD of the first event (high affinity, endothermic) amounted to 0.008 µM; the KD of the second event (lower affinity, exothermic) amounted to 3 µM; the N of the first event is 0.5.
